Reference: patent US8840891 (RSR, dated 2014)
Like-named read-outs stand apart in the source and are kept apart here.

What was measured:
[1] = target: TSHR with Arg80 mutated to Alanine (human) (UniProt P16473); experiment: cell-based or functional assay
[2] = target: wild type human TSHR (human) (UniProt P16473); experiment: cell-based or functional assay
[3] = target: TSHR with Arg109 mutated to Alanine (human) (UniProt P16473); experiment: cell-based or functional assay
[4] = target: wild type human TSHR (human) (UniProt P16473); experiment: cell-based or functional assay; remark: listed apart in the source
[5] = target: TSHR with Phe134 mutated to Alanine (human) (UniProt P16473); experiment: cell-based or functional assay
[6] = target: wild type human TSHR (human) (UniProt P16473); experiment: cell-based or functional assay; remark: listed apart in the source
[7] = target: TSHR with Asp151 mutated to Alanine (human) (UniProt P16473); experiment: cell-based or functional assay
[8] = target: wild type human TSHR (human) (UniProt P16473); experiment: cell-based or functional assay; remark: listed apart in the source
[9] = target: TSHR with Asp160 mutated to Lysine (human) (UniProt P16473); experiment: cell-based or functional assay
[10] = target: TSHR with Ser281 mutated to Alanine (human) (UniProt P16473); experiment: cell-based or functional assay
[11] = target: wild type human TSHR (human) (UniProt P16473); experiment: cell-based or functional assay; remark: listed apart in the source
[12] = target: TSHR coated onto tubes (human) (UniProt P16473); experiment: TSHR coated tubes, competitor 125I-M22 IgG
[13] = target: TSHR with Tyr206 mutated to Alanine expressed on CHO cells (human) (UniProt P16473); experiment: cell-based or functional assay
[14] = target: wild type human TSHR (thyrotropin receptor) expressed on CHO cells (human) (UniProt P16473); experiment: cell-based or functional assay

5C9 IgG (antibody)
Mutated/wild type (%); 5C9 0.01 µg/mL + TSH [1]: 99%
Mutated/wild type (%); 5C9 0.1 µg/mL + TSH [1]: 82%
Mutated/wild type (%); 5C9 1.0 µg/mL + TSH [1]: 20%
Mutated/wild type (%); 5C9 10 µg/mL + TSH [1]: 55%
Mutated/wild type (%); 5C9 100 µg/mL + TSH [1]: 23%
Mutated/wild type (%); 5C9 100 µg/mL only [1]: 202%
cyclic AMP; 5C9 0.01 µg/mL + TSH (fmol/cell well) [1]: 14300
cyclic AMP; 5C9 0.1 µg/mL + TSH (fmol/cell well) [1]: 9280
cyclic AMP; 5C9 1.0 µg/mL + TSH (fmol/cell well) [1]: 1360
cyclic AMP; 5C9 10 µg/mL + TSH (fmol/cell well) [1]: 1160
cyclic AMP; 5C9 100 µg/mL + TSH (fmol/cell well) [1]: 518
cyclic AMP; 5C9 100 µg/mL only (fmol/cell well) [1]: 494
cyclic AMP; 5C9 0.01 µg/mL + TSH (fmol/cell well) [2]: 14400
cyclic AMP; 5C9 0.1 µg/mL + TSH (fmol/cell well) [2]: 11300
cyclic AMP; 5C9 1.0 µg/mL + TSH (fmol/cell well) [2]: 6700
cyclic AMP; 5C9 10 µg/mL + TSH (fmol/cell well) [2]: 2110
cyclic AMP; 5C9 100 µg/mL + TSH (fmol/cell well) [2]: 2230
cyclic AMP; 5C9 100 µg/mL only (fmol/cell well) [2]: 244
Mutated/wild type (%); 5C9 0.01 µg/mL + TSH [3]: 89%
Mutated/wild type (%); 5C9 0.1 µg/mL + TSH [3]: 43%
Mutated/wild type (%); 5C9 1.0 µg/mL + TSH [3]: 69%
Mutated/wild type (%); 5C9 10 µg/mL + TSH [3]: 117%
Mutated/wild type (%); 5C9 100 µg/mL + TSH [3]: 46%
Mutated/wild type (%); 5C9 100 µg/mL only [3]: 147%
cyclic AMP; 5C9 0.01 µg/mL + TSH (fmol/cell well) [3]: 9650
cyclic AMP; 5C9 0.1 µg/mL + TSH (fmol/cell well) [3]: 1720
cyclic AMP; 5C9 1.0 µg/mL + TSH (fmol/cell well) [3]: 827
cyclic AMP; 5C9 10 µg/mL + TSH (fmol/cell well) [3]: 827
cyclic AMP; 5C9 100 µg/mL + TSH (fmol/cell well) [3]: 561
cyclic AMP; 5C9 100 µg/mL only (fmol/cell well) [3]: 335
cyclic AMP; 5C9 0.01 µg/mL + TSH (fmol/cell well) [4]: 10800
cyclic AMP; 5C9 0.1 µg/mL + TSH (fmol/cell well) [4]: 4010
cyclic AMP; 5C9 1.0 µg/mL + TSH (fmol/cell well) [4]: 1210
cyclic AMP; 5C9 10 µg/mL + TSH (fmol/cell well) [4]: 706
cyclic AMP; 5C9 100 µg/mL + TSH (fmol/cell well) [4]: 1230
cyclic AMP; 5C9 100 µg/mL only (fmol/cell well) [4]: 228
Mutated/wild type (%); 5C9 0.01 µg/mL + TSH [5]: 117%
Mutated/wild type (%); 5C9 0.1 µg/mL + TSH [5]: 73%
Mutated/wild type (%); 5C9 1.0 µg/mL + TSH [5]: 43%
Mutated/wild type (%); 5C9 10 µg/mL + TSH [5]: 44%
Mutated/wild type (%); 5C9 100 µg/mL + TSH [5]: 77%
Mutated/wild type (%); 5C9 100 µg/mL only [5]: 159%
cyclic AMP; 5C9 0.01 µg/mL + TSH (fmol/cell well) [5]: 15900
cyclic AMP; 5C9 0.1 µg/mL + TSH (fmol/cell well) [5]: 6370
cyclic AMP; 5C9 1.0 µg/mL + TSH (fmol/cell well) [5]: 1940
cyclic AMP; 5C9 10 µg/mL + TSH (fmol/cell well) [5]: 1060
cyclic AMP; 5C9 100 µg/mL + TSH (fmol/cell well) [5]: 1070
cyclic AMP; 5C9 100 µg/mL only (fmol/cell well) [5]: 337
cyclic AMP; 5C9 0.01 µg/mL + TSH (fmol/cell well) [6]: 13600
cyclic AMP; 5C9 0.1 µg/mL + TSH (fmol/cell well) [6]: 8700
cyclic AMP; 5C9 1.0 µg/mL + TSH (fmol/cell well) [6]: 4540
cyclic AMP; 5C9 10 µg/mL + TSH (fmol/cell well) [6]: 2390
cyclic AMP; 5C9 100 µg/mL + TSH (fmol/cell well) [6]: 1390
cyclic AMP; 5C9 100 µg/mL only (fmol/cell well) [6]: 212
Mutated/wild type (%); 5C9 0.01 µg/mL + TSH [7]: 112%
Mutated/wild type (%); 5C9 0.1 µg/mL + TSH [7]: 143%
Mutated/wild type (%); 5C9 1.0 µg/mL + TSH [7]: 465%
Mutated/wild type (%); 5C9 10 µg/mL + TSH [7]: 599%
Mutated/wild type (%); 5C9 100 µg/mL + TSH [7]: 162%
Mutated/wild type (%); 5C9 100 µg/mL only [7]: 224%
cyclic AMP; 5C9 0.01 µg/mL + TSH (fmol/cell well) [7]: 12600
cyclic AMP; 5C9 0.1 µg/mL + TSH (fmol/cell well) [7]: 9960
cyclic AMP; 5C9 1.0 µg/mL + TSH (fmol/cell well) [7]: 6450
cyclic AMP; 5C9 10 µg/mL + TSH (fmol/cell well) [7]: 2280
cyclic AMP; 5C9 100 µg/mL + TSH (fmol/cell well) [7]: 1540
cyclic AMP; 5C9 100 µg/mL only (fmol/cell well) [7]: 395
cyclic AMP; 5C9 0.01 µg/mL + TSH (fmol/cell well) [8]: 11200
cyclic AMP; 5C9 0.1 µg/mL + TSH (fmol/cell well) [8]: 6950
cyclic AMP; 5C9 1.0 µg/mL + TSH (fmol/cell well) [8]: 1390
cyclic AMP; 5C9 10 µg/mL + TSH (fmol/cell well) [8]: 380
cyclic AMP; 5C9 100 µg/mL + TSH (fmol/cell well) [8]: 945
cyclic AMP; 5C9 100 µg/mL only (fmol/cell well) [8]: 176
Mutated/wild type (%); 5C9 0.01 µg/mL + M22 [9]: 91%
Mutated/wild type (%); 5C9 0.1 µg/mL + M22 [9]: 82%
Mutated/wild type (%); 5C9 1.0 µg/mL + M22 [9]: 117%
Mutated/wild type (%); 5C9 10 µg/mL + M22 [9]: 309%
Mutated/wild type (%); 5C9 100 µg/mL + M22 [9]: 218%
Mutated/wild type (%); 5C9 100 µg/mL only [9]: 107%
cyclic AMP; 5C9 0.01 µg/mL + M22 (fmol/cell well) [9]: 15200
cyclic AMP; 5C9 0.1 µg/mL + M22 (fmol/cell well) [9]: 7700
cyclic AMP; 5C9 1.0 µg/mL + M22 (fmol/cell well) [9]: 963
cyclic AMP; 5C9 10 µg/mL + M22 (fmol/cell well) [9]: 642
cyclic AMP; 5C9 100 µg/mL + M22 (fmol/cell well) [9]: 657
cyclic AMP; 5C9 100 µg/mL only (fmol/cell well) [9]: 458
Mutated/wild type (%); 5C9 0.01 µg/mL + TSH [10]: 210%
Mutated/wild type (%); 5C9 0.1 µg/mL + TSH [10]: 172%
Mutated/wild type (%); 5C9 1.0 µg/mL + TSH [10]: 95%
Mutated/wild type (%); 5C9 10 µg/mL + TSH [10]: 193%
Mutated/wild type (%); 5C9 100 µg only [10]: 391%
Mutated/wild type (%); 5C9 100 µg/mL + TSH [10]: 149%
cyclic AMP; 5C9 0.01 µg/mL + TSH (fmol/cell well) [10]: 29000
cyclic AMP; 5C9 0.1 µg/mL + TSH (fmol/cell well) [10]: 15600
cyclic AMP; 5C9 1.0 µg/mL + TSH (fmol/cell well) [10]: 3550
cyclic AMP; 5C9 10 µg/mL + TSH (fmol/cell well) [10]: 1550
cyclic AMP; 5C9 100 µg only (fmol/cell well) [10]: 785
cyclic AMP; 5C9 100 µg/mL + TSH (fmol/cell well) [10]: 1600
cyclic AMP; 5C9 0.01 µg/mL + TSH (fmol/cell well) [11]: 13800
cyclic AMP; 5C9 0.1 µg/mL + TSH (fmol/cell well) [11]: 9070
cyclic AMP; 5C9 1.0 µg/mL + TSH (fmol/cell well) [11]: 3730
cyclic AMP; 5C9 10 µg/mL + TSH (fmol/cell well) [11]: 802
cyclic AMP; 5C9 100 µg only (fmol/cell well) [11]: 201
cyclic AMP; 5C9 100 µg/mL + TSH (fmol/cell well) [11]: 1080
% inhib of 125I-M22 IgG binding at 0.01 µg/mL [12]: 5%
% inhib of 125I-M22 IgG binding at 0.1 µg/mL [12]: 6%
% inhib of 125I-M22 IgG binding at 1 µg/mL [12]: 14%
% inhib of 125I-M22 IgG binding at 10 µg/mL [12]: 22%
% inhib of 125I-M22 IgG binding at 100 µg/mL [12]: 53%

B1: 5C9 IgG (human monoclonal autoantibody to the TSHR) (antibody, from another filing, V domains shown)
VH: EVQLVESGGGLIQPGGSLRLSCAASGFTVSSNYMSWVRQAPGKGLEWVSVTYSGGSTSYADSVKGRFTISRDNSKNTLYLQMNSLRAEDTAVYYCARGGRYCSSISCYARSGCDYWGQGTLVTVSS
VL: AIQMTQSPSSLSASVGDRVTITCRASQSISNYLNWYQQKPGKAPKLLIYAASSLQSGVPSRFSGSGSGTDFTLTISSLQPEDFATYYCQQSYSSPSTTFGQGTKLEIK
Cyclic AMP produced; 5C9 0.01 µg/mL + TSH (fmol/cell well) [13]: 18400
Cyclic AMP produced; 5C9 0.1 µg/mL + TSH (fmol/cell well) [13]: 10800
Cyclic AMP produced; 5C9 1.0 µg/mL + TSH (fmol/cell well) [13]: 3460
Cyclic AMP produced; 5C9 10 µg/mL + TSH (fmol/cell well) [13]: 1560
Cyclic AMP produced; 5C9 100 µg/mL + TSH (fmol/cell well) [13]: 506
Cyclic AMP produced; 5C9 100 µg/mL only (fmol/cell well) [13]: 482
Mutated/wild type (%); 5C9 0.01 µg/mL + TSH [13]: 114%
Mutated/wild type (%); 5C9 0.1 µg/mL + TSH [13]: 174%
Mutated/wild type (%); 5C9 1.0 µg/mL + TSH [13]: 265%
Mutated/wild type (%); 5C9 10 µg/mL + TSH [13]: 395%
Mutated/wild type (%); 5C9 100 µg/mL + TSH [13]: 173%
Mutated/wild type (%); 5C9 100 µg/mL only [13]: 109%
Cyclic AMP produced; 5C9 0.01 µg/mL + TSH (fmol/cell well) [14]: 16100
Cyclic AMP produced; 5C9 0.1 µg/mL + TSH (fmol/cell well) [14]: 6220
Cyclic AMP produced; 5C9 1.0 µg/mL + TSH (fmol/cell well) [14]: 1310
Cyclic AMP produced; 5C9 10 µg/mL + TSH (fmol/cell well) [14]: 396
Cyclic AMP produced; 5C9 100 µg/mL + TSH (fmol/cell well) [14]: 292
Cyclic AMP produced; 5C9 100 µg/mL only (fmol/cell well) [14]: 444
